From patent publication US20070048860A1
Blank lines part the entries; values can stand above or below the substance they belong to.

Assays:
Assay in all cases: cell-based or functional assay
[1] = target: murine ICAM-1 (CD54) expressed on MC38 cells infected with rV-ICAM-1 (murine) (UniProt P13597)
[2] = target: murine B7-1 (CD80) expressed on MC38 cells infected with rV-B7-1 (murine) (UniProt Q00609)
[3] = target: murine LFA-3 (CD48) expressed on MC38 cells infected with rV-LFA-3 (murine) (UniProt P18181)

reduction of the increased T-cell proliferation supported by MC38/ICAM-1 (Con A, 3H-thymidine) [1]: 88%
Substance: Hamster anti-murine CD54 (ICAM-1; clone 3E2) (antibody)

inhibition of the increased T-cell proliferation supported by MC38/B7-1 (Con A, 3H-thymidine) [2]: 83%
Substance: Hamster anti-murine CD80 (B7-1; clone 16-10A1) (antibody)

reduction of the increased T-cell proliferation supported by MC38/LFA-3 (Con A, 3H-thymidine) [3]: 98%
Substance: Hamster anti-murine CD48 (BCM-1 clone HM48-1) (antibody)
